This passage reports Km results from patent US20080076824A1, “Compounds That Inhibit Replication Of Human Immunodeficiency Virus” (priority 2004, published 2008).

Usually Km stands for the concentration of substrate that gives half-maximal velocity.

Common to all, as to assay type: biochemical
Substrate in series [1]: NCC(=O)N1CCC[C@H]1C(=O)NCC(N)=O
The series can be described thus: Conversion of [14C]GPG-NH2 to G-NH2 by human serum. The conditions noted are these: other: derived from GPG-NH2 disappearance curves; pH 3.5. The procedure: (§1) Next, the conversion of radiolabeled [^14C]GPG-NH2 to [^14C]G-NH2 by purified CD26, fetal bovine serum (FBS), human serum (HS) and CEM cell suspensions was analyzed. Radiolabeled [^14C]GPG-NH2 (radiospecificity: 58 mCi/mmol), in which the radiolabeled carbon is located in the main chain carbon of the glycine at the carboxylic acid end of the tripeptide, and [^14C]G-NH2 (radiospecificity: 56 mCi/mmol) in which carbon-2 was radiolabeled were synthesized by Amersham Pharmacia Biotech (Buckinghamshire, England). A variety of these [^14C]GPG-NH2 concentrations were exposed to purified CD26, FBS, HS and CEM cell suspensions and the conversion to G-NH2 was analyzed.
(§2) In another set of experiments, after one hour of exposure, disappearance of intact [^14C]GPG-NH2 was determined by HPLC analysis, as described above, using a cation-exchange Partisphere SCX column and a sodium phosphate buffer gradient at pH 3.5. GPG-NH2 was well-separated from G-NH2 (retention times: 25-27 min and 15-17 min, respectively). […] The GPG-NH2 conversion by the CEM cell suspensions proceeded linearly up to 1.5 mM. Only at higher GPG-NH2 concentrations (e.g., 3 and 5.4 mM), did the conversion curve for the CEM cell suspensions start to level-off slightly.

Substrate in series [2]: NCC(=O)N1CCC[C@H]1C(=O)NCC(N)=O
The series can be described thus: Conversion of GPG-NH2 to GP-OH and G-NH2 by purified CD26. The conditions noted are these: other: purified CD26; pH 3.5. As for the experimental part: In some experiments, approximately, 100 μM GPG-NH2 was exposed to 25 units/l of purified CD26 and the mixture was incubated for up to 400 minutes at room temperature. The lymphocyte surface glycoprotein CD26/dipeptidylpeptidase IV was purified as described before. (See De Meester, J. Immunol. Methods, 189:99-105 (1996), herein expressly incorporated by reference in its entirety). At different time points, an aliquot of the reaction mixture was withdrawn and analyzed on an electrospray ion trap mass spectrometer (Esquire, Bruker, Bremen, Germany). The appearance of the dipeptide GP-OH upon release from the amino terminal end of the GPG-NH2 molecule, as well as, the disappearance of intact GPG-NH2 from the reaction mixture was determined and monitored by electrospray ion trap mass spectometric analysis at different time points (See FIG. 3). Under these experimental conditions, CD26 released GP-OH in a time-dependent manner from GPG-NH2, and virtually completely converted GPG-NH2 to GP-OH and G-NH2 within 4 to 6 hrs of the reaction.
Next, the conversion of radiolabeled [^14C]GPG-NH2 to [^14C]G-NH2 by purified CD26, fetal bovine serum (FBS), human serum (HS) and CEM cell suspensions was analyzed. […] A variety of these [^14C]GPG-NH2 concentrations were exposed to purified CD26, FBS, HS and CEM cell suspensions and the conversion to G-NH2 was analyzed. […]

Substrate in series [3]: NCC(=O)N1CCC[C@H]1C(=O)NCC(N)=O
The series can be described thus: Conversion of [14C]GPG-NH2 to G-NH2 by fetal bovine serum. The conditions noted are these: other: derived from GPG-NH2 disappearance curves; pH 3.5. As for the experimental part:
as §1, §2

B1: dipeptidylpeptidase activity associated with HS (Homo sapiens) (protein)
chain: SRKTYTLTDYLKNTYRLKLYSLRWISDHEYLYKQENNILVFNAEYGNSSVFLENSTFDEFGHSINDYSISPDGQFILLEYNYVKQWRHSYTASYDIYDLNKRQLITEERIPNNTQWVTWSPVGHKLAYVWNNDIYVKIEPNLPSYRITWTGKEDIIYNGITDWVYEEEVFSAYSALWWSPNGTFLAYAQFNDTEVPLIEYSFYSDESLQYPKTVRVPYPKAGAVNPTVKFFVVNTDSLSSVTNATSIQITAPASMLIGDHYLCDVTWATQERISLQWLRRIQNYSVMDICDYDESSGRWNCLVARQHIEMSTTGWVGRFRPSEPHFTLDGNSFYKIISNEEGYRHICYFQIDKKDCTFITKGTWEVIGIEALTSDYLYYISNEYKGMPGGRNLYKIQLSDYTKVTCLSCELNPERCQYYSVSFSKEAKYYQLRCSGPGLPLYTLHSSVNDKGLRVLEDNSALDKMLQNVQMPSKKLDFIILNETKFWYQMILPPHFDKSKKYPLLLDVYAGPCSQKADTVFRLNWATYLASTENIIVASFDGRGSGYQGDKIMHAINRRLGTFEVEDQIEAARQFSKMGFVDNKRIAIWGWSYGGYVTSMVLGSGSGVFKCGIAVAPVSRWEYYDSVYTERYMGLPTPEDNLDHYRNSTVMSRAENFKQVEYLLIHGTADDNVHFQQSAQISKALVDVGVDFQAMWYTDEDHGIASSTAHQHIYTHMSHFIKQCFSLP
notes: from tissue; host or cells: human serum
Take B1: the Km in series [1] was found to be 450 µM.

B2: CD26/dipeptidylpeptidase IV (Homo sapiens) (protein)
chain: MKTPWKVLLGLLGAAALVTIITVPVVLLNKGTDDATADSRKTYTLTDYLKNTYRLKLYSLRWISDHEYLYKQENNILVFNAEYGNSSVFLENSTFDEFGHSINDYSISPDGQFILLEYNYVKQWRHSYTASYDIYDLNKRQLITEERIPNNTQWVTWSPVGHKLAYVWNNDIYVKIEPNLPSYRITWTGKEDIIYNGITDWVYEEEVFSAYSALWWSPNGTFLAYAQFNDTEVPLIEYSFYSDESLQYPKTVRVPYPKAGAVNPTVKFFVVNTDSLSSVTNATSIQITAPASMLIGDHYLCDVTWATQERISLQWLRRIQNYSVMDICDYDESSGRWNCLVARQHIEMSTTGWVGRFRPSEPHFTLDGNSFYKIISNEEGYRHICYFQIDKKDCTFITKGTWEVIGIEALTSDYLYYISNEYKGMPGGRNLYKIQLSDYTKVTCLSCELNPERCQYYSVSFSKEAKYYQLRCSGPGLPLYTLHSSVNDKGLRVLEDNSALDKMLQNVQMPSKKLDFIILNETKFWYQMILPPHFDKSKKYPLLLDVYAGPCSQKADTVFRLNWATYLASTENIIVASFDGRGSGYQGDKIMHAINRRLGTFEVEDQIEAARQFSKMGFVDNKRIAIWGWSYGGYVTSMVLGSGSGVFKCGIAVAPVSRWEYYDSVYTERYMGLPTPEDNLDHYRNSTVMSRAENFKQVEYLLIHGTADDNVHFQQSAQISKALVDVGVDFQAMWYTDEDHGIASSTAHQHIYTHMSHFIKQCFSLP
notes: made in house; by own knowledge a natural human source (seminal plasma), not recombinant
Take B2: the Km in series [2] stood at 183 µM.

B3: dipeptidylpeptidase activity associated with FBS (Bos taurus) (protein)
chain: SRRTYTLADYLKNTFRMKFYNLRWVSDHEYLYKQENNILLFNAEYGNSSIFLENSTFDEFGHSINDYSVSPDRQYILFEYNYVKQWRHSYTASYDIYDLNKRQLITEERIPNNTQWITWSSVGHKLAYVWNNDIYVKNEPNSPSQRITWTGKKDVIYNGITDWVYEEEVFSAYSALWWSPNSTFLAYAQFNDTEVPLIEYSFYSDESLQYPKTVKIPYPKAGAVNPTIKFFVVNISSLSPNINATSQQIVPPGSVLIGDHYLCDVTWVTEERISLQWLRRIQNYSIMDICDYDRSTGRWISSVGRQHIEISTTGWVGRFRPAEPHFTSDGNSFYKIISNEEGYKHICHFQTDKRNCTFITKGAWEVIGIEALTSDYLYYISNEYKGMPGARNLYKIQLNDYTKVTCLSCELNPDRCQYYSVSFSQEAKYYQLRCSGPGLPLYTLHNSNNDKELRVLENNSDLDQVLQDVQMPSKKLDFIHLHGTKFWYQMILPPHFDKSKKYPLLLEVYAGPCSQKADAIFRLNWATYLASTENIIVASFDGRGSGYQGDKIMHAINRRLGTFEVEDQIEATRQFSKMGFVDDKRIAIWGWSYGGYVTSMVLGAGSGVFKCGIAVAPVSKWEYYDSVYTERYMGLPTPEDNLDSYRNSTVMSRAENFKQVEYLLIHGTADDNVHFQQSAQISKALVDAGVDFQSMWYTDEDHGIASSTAHQHIYTHMSHFLKQCFSLL
notes: from tissue; host or cells: fetal bovine serum
Regarding B3, the Km in series [3] was determined as 1400 µM.
